One substance from paper PMC12432413 can be followed below.

The assay concerns the target CP* (calprotectin, S100A8 C42S / S100A9 C3S heterodimer) (UniProt P05109). The assay is described as follows: crystal structure; Ca2+-loaded CP* with 0.7 equivalents of Zn2+; 20 mM Tris pH 7.5, 100 mM NaCl, 2 mM MgCl2; hanging drop, 20°C, 1.0M sodium citrate (pH 5.2), 28% MPD; 1.87 Å.

Usually stoichiometry N stands for a count of units in the complex or per binding partner.

On to “CP* (calprotectin, S100A8 C42S / S100A9 C3S heterodimer) (from UniProt P05109 1-87; P06702 5-112) (complex)”, for which the stoichiometry N worked out at 2.
